Data as given in US8580497B2, “Methods for detection of the oncogenic T1796A B-Raf mutation” (The Wellcome Trust, priority 2001, dated 2013).

Experiments:
ERK in WM266.4 cells = assay: ERK activity, Western blot with ppERK antibody; assay type: cell-based, human; conditions: compound at 10 μM
Protocol: FIG. 3B. Inhibition of ERK in melanoma cell lines using pharmacological reagents. WM266.4 or A375P cells were treated with 10 μM U0126, 10 μM BAY 43-9006 or DMSO as a control. Equivalent amounts of cellular proteins were resolved on SDS-gels and the levels of active ERK were determined using the ppERK antibody.
FIG. 6. Ablation of BRAF, but not CRAF blocks ERK activity in melanoma cells. WM-266.4 or Colo 829 cells were treated with a BRAF specific siRNA probe (BRAF), or the scrambled control (sBRAF), or a CRAF specific probe (CRAF), or its scrambled control (sCRAF), or oligofectamine (oligo) or left untreated (control) as indicated. The cells were incubated for the times indicated, and the Colo 829 cells were treated for 24 hours. The levels of ERK activity in equivalent amounts of cell extract was determined by Western blotting with the ppERK antibody.
In order to validate BRAF as a target in cancer, it is first tested whether the growth of cells that express activated, mutant forms of BRAF required the RAF-MEK-ERK signaling pathway for growth. To this end, melanoma and colorectal cell lines that harbour mutations in the BRAF gene are treated with pharmacological agents that block signaling through this pathway. Two compounds are tested. One is the compound U0126, which is a MEK inhibitor and which therefore uncouples RAF-ERK signaling in cells (Sebolt-Leopold et al., 1999). […]

ERK in Mawi = conditions: colorectal, Ras wt, B-Raf V599E
Description: (§1) The second approach is to examine the effects of the compound U0126, an inhibitor of MEK1/2, the only known substrates for B-Raf.

ERK in SK-MEL-28 = conditions: SK-MEL-28, melanoma, B-Raf V599E
Description: as §1

ERK in WM-266-4/WM-115 = conditions: WM-266-4/WM-115, melanoma, B-Raf V599D
Description: as §1

SK-MEL-28 = conditions: SK-MEL-28, melanoma, B-Raf V599E
Description: as §1

WM-266-4/WM-115 = conditions: WM-266-4/WM-115, melanoma, B-Raf V599D
Description: as §1

cellular Ras (human) = assay: cell-based or functional assay

In the case of `CNC(=O)c1cc(Oc2ccc(NC(=O)Nc3ccc(Cl)c(C(F)(F)F)c3)cc2)ccn1` [BAY 43-9006], the “ERK activity (ppERK Western blot)” value (ERK in WM266.4 cells) is reported as “strongly suppressed”.

With `N#CC(=C(/N)Sc1ccccc1N)/C(C#N)=C(\N)Sc1ccccc1N` [U0126] the “UO/ ERK-inhib” value (ERK in Mawi) was >90%, the “UO/ ERK-inhib” value (ERK in SK-MEL-28) was >90% and the “UO/ ERK-inhib” value (ERK in WM-266-4/WM-115) was >90%. The “U0 inhibit S” value (SK-MEL-28) was 98%, the “U0 inhibit S” value (WM-266-4/WM-115) was >99% and the “ERK activity (ppERK Western blot)” value (ERK in WM266.4 cells) was “strongly suppressed”.

For G463V B-Raf (myc-epitope tagged), the “^V12Ras stimulated kinase activity of B-Raf (immunoprecipitation kinase cascade assay, GST-MEK, GST-ERK and MBP as sequential substrates)” value (shortened to “^V12Ras stimulated kinase activity”) (oncogenic Ras (V12Ras)) was “All five mutants are stimulated by oncogenic Ras (^V12Ras). However, the fold activation for each of the mutants is reduced compared with wild-type B-Raf”.

With G468A B-Raf (myc-epitope tagged) the “^V12Ras stimulated kinase activity” value (oncogenic Ras (V12Ras)) was “All five mutants are stimulated by oncogenic Ras (^V12Ras). However, the fold activation for each of the mutants is reduced compared with wild-type B-Raf”.

G595R B-Raf (myc-epitope tagged) was tested, and the “^V12Ras stimulated kinase activity” value (oncogenic Ras (V12Ras)) was “^G595RB-Raf is also stimulated by ^V12Ras, but the activation was very weak, probably due to the low starting levels”.

In the case of L596V B-Raf (myc-epitope tagged), the “^V12Ras stimulated kinase activity” value (oncogenic Ras (V12Ras)) is reported as “All five mutants are stimulated by oncogenic Ras (^V12Ras). However, the fold activation for each of the mutants is reduced compared with wild-type B-Raf”.

With V599E B-Raf (myc-epitope tagged) the “^V12Ras stimulated kinase activity” value (oncogenic Ras (V12Ras)) was “the fold activation for each of the mutants is reduced compared with wild-type B-Raf (See FIG. 1A, B) and is particularly small in the case of ^V599EB-Raf”.

monoclonal antibody Y13-259 showed a Y13-259 S-phase inhibition (percentage of cells that do not incorporate BrdU) after micro-injection; A2058 melanoma cells, Ras status blank, B-Raf V599E (cellular Ras (human)) of 0%, a Y13-259 S-phase inhibition (percentage of cells that do not incorporate BrdU) after micro-injection; CaCO2 colorectal cells, Ras wt, B-Raf wt (cellular Ras (human)) of 60% and a Y13-259 S-phase inhibition (percentage of cells that do not incorporate BrdU) after micro-injection; DLD1 colorectal cells, Ras K13Asp/wt, B-Raf wt (cellular Ras (human)) of 40%. The Y13-259 S-phase inhibition (percentage of cells that do not incorporate BrdU) after micro-injection; HCT-116 colorectal cells, Ras K13 Asp, B-Raf wt (cellular Ras (human)) was 95%, the Y13-259 S-phase inhibition (percentage of cells that do not incorporate BrdU) after micro-injection; HMV11-Riken melanoma cells, Ras status blank, B-Raf wt (cellular Ras (human)) was 100% and the Y13-259 S-phase inhibition (percentage of cells that do not incorporate BrdU) after micro-injection; HT29 colorectal cells, Ras wt, B-Raf V599E (cellular Ras (human)) was 15%. It also gave a Y13-259 S-phase inhibition (percentage of cells that do not incorporate BrdU) after micro-injection; JW2 colorectal cells, Ras K12, B-Raf wt (cellular Ras (human)) of 79%, a Y13-259 S-phase inhibition (percentage of cells that do not incorporate BrdU) after micro-injection; LS174T colorectal cells, Ras K12Asp/wt, B-Raf wt (cellular Ras (human)) of 84% and a Y13-259 S-phase inhibition (percentage of cells that do not incorporate BrdU) after micro-injection; LS411N colorectal cells, Ras status blank, B-Raf V599E (first value) (cellular Ras (human)) of 0%. The Y13-259 S-phase inhibition (percentage of cells that do not incorporate BrdU) after micro-injection; LS411N colorectal cells, Ras status blank, B-Raf V599E (second value) (cellular Ras (human)) was 0%, the Y13-259 S-phase inhibition (percentage of cells that do not incorporate BrdU) after micro-injection; Malme melanoma cells, Ras status blank, B-Raf V599E (cellular Ras (human)) was 0% and the Y13-259 S-phase inhibition (percentage of cells that do not incorporate BrdU) after micro-injection; Mawi colorectal cells, Ras wt, B-Raf V599E (cellular Ras (human)) was 5%. For the same compound, the Y13-259 S-phase inhibition (percentage of cells that do not incorporate BrdU) after micro-injection; NCI-H2087 NSCLC cell line pair, Ras onc, B-Raf L596V (cellular Ras (human)) was 77%, the Y13-259 S-phase inhibition (percentage of cells that do not incorporate BrdU) after micro-injection; SK-MEL-28 melanoma cells, Ras b, B-Raf V599E (cellular Ras (human)) was 4% and the Y13-259 S-phase inhibition (percentage of cells that do not incorporate BrdU) after micro-injection; SK-Mel2 melanoma cells, Ras status blank, B-Raf wt (cellular Ras (human)) was 70%. For the same compound, the Y13-259 S-phase inhibition (percentage of cells that do not incorporate BrdU) after micro-injection; SW480 colorectal cells, Ras K12, B-Raf wt (cellular Ras (human)) was 57%, the Y13-259 S-phase inhibition (percentage of cells that do not incorporate BrdU) after micro-injection; SW620 colorectal cells, Ras onc, B-Raf wt (cellular Ras (human)) was 92% and the Y13-259 S-phase inhibition (percentage of cells that do not incorporate BrdU) after micro-injection; WM-266-4/WM-115 melanoma cells, Ras b, B-Raf V599D (cellular Ras (human)) was 10%. It also gave a Y13-259 S-phase inhibition (percentage of cells that do not incorporate BrdU) after micro-injection; colo205 colorectal cells, Ras wt, B-Raf V599E (cellular Ras (human)) of 3% and a Y13-259 S-phase inhibition (percentage of cells that do not incorporate BrdU) after micro-injection; colo741 colorectal cells, Ras status blank, B-Raf V599E (cellular Ras (human)) of 0%.
